# In US20060140968A1 (GREEN PEPTIDE, published 2006):
# T1: HLA-A2402 (human, UniProt P04439-2 25-302 at identity 0.92))
# T1 MHC heavy: not shown
# T2: HLA-A0201 (human, UniProt P04439 25-302 at identity 0.94))
# T2 MHC heavy: not shown
# Target: T1, HLA-A2402
# Assay: cell-based or functional assay
row,Binder,IFN-γ in the supernatant (pg/ml) produced by KE-4CTL on HLA-A2402-transfected VA-13 cells pulsed with 10 µM peptide (no peptide: 677)
1,"VYDYNCHVDL [SART-3 peptide ""109-118"" Val-Tyr-Asp-Tyr-Asn-Cys-His-Val-Asp-Leu]",928 pg/mL
2,"LFEKAVKDYI [SART-3 peptide ""172-181"" Leu-Phe-Glu-Lys-Ala-Val-Lys-Asp-Tyr-Ile]",830 pg/mL
3,"NYNKALQQL [SART-3 peptide ""284-292"" Asn-Tyr-Asn-Lys-Ala-Leu-Gln-Gln-Leu]",794 pg/mL
4,"AYIDFEMKI [SART-3 peptide ""315-323"" Ala-Tyr-Ile-Asp-Phe-Glu-Met-Lys-Ile]",880 pg/mL
5,"DYVEIWQAYL [SART-3 peptide ""416-425""]",731 pg/mL
6,"DYLRRRVDF [SART-3 peptide ""426-434"" Asp-Tyr-Leu-Arg-Arg-Arg-Val-Asp-Phe]",833 pg/mL
7,"AFTRALEYL [SART-3 peptide ""448-456"" Ala-Phe-Thr-Arg-Ala-Leu-Glu-Tyr-Leu]",754 pg/mL

# Target: T2, HLA-A0201
# Assay: cell-based or functional assay
row,Binder,"IFN-γ in the supernatant (pg/ml) produced by OK-CTL on HLA-A0201-positive T2 cells pulsed with 10 µM peptide, value with no peptide subtracted"
1,"LLQAEAPRL [SART-3 peptide ""302-310""]",190 pg/mL
2,"RLAEYQAYI [SART-3 peptide ""309-317""]",231 pg/mL
3,"LLAMERHGV [SART-3 peptide ""386-394""]",122 pg/mL
4,"WLHDEISMA [SART-3 peptide ""152-160""]",162 pg/mL
5,"SLFRRQLAI [SART-3 peptide ""249-257""]",209 pg/mL
